Measurements reported in patent publication US20240026019A1 (Innovent, published 2024).

Assays:
[1] = molecular target: T1, hTNFR2 protein (coated on the microplate in the blocking ELISA) (human, UniProt P20333 23-257); experiment: blocking ELISA: hTNFR2 coated on the plate, binding of biotinylated TNFα blocked by the antibody, Avidin-HRP
T1 construct: The construct coated in the ELISA is not described (it may or may not be the immunogen, Sino biological 10417-H03H)
T1 sequence (looked up): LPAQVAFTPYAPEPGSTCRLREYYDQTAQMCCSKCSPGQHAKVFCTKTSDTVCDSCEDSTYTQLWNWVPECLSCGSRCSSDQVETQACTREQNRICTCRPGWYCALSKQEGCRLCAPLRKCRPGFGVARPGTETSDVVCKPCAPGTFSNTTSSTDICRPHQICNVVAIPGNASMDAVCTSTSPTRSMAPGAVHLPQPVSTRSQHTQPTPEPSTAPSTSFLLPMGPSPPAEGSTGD
Procedure: The ability of the hybridoma antibodies 3C4, 69B1, and 72G8 and the control antibody OPI to block the binding of human TNFα to hTNFR2 was assayed by ELISA.
The hTNFR2 protein was resuspended and dissolved to a concentration of 2 μg/mL with PBS, and a microplate was coated with the protein and incubated overnight. The plate was blocked with 5% BSA for 1 h, and a biotinylated antigen (Recombinant Biotinylated TNFα protein (ACRO)) was diluted to 3 μg/mL and added to the plate at 20 μL/well. The antibodies prepared as described above (3C4, 69B1, and 72G8) were each diluted in a gradient starting from the maximum concentration of 300 nM for a total of 8 or 12 dilution gradients. The diluted antibodies were added at 200 μL/well and incubated in PBS on ice for 30 min. The antigen-antibody mixture was incubated in a microplate for 90 min and washed three times with PBS, and the supernatant was discarded. 100 μL of Avidin-HRP (Invitrogen) diluted at a 1:5000 ratio was added to each well, incubated at room temperature for 30 min, and washed six times with PBS. A TMB chromogenic solution (solarbio) was added to the plate at 100 μL/well for color development for 1 min, and the reaction was stopped by adding a stop buffer (solarbio) at 100 μL/well. The plate was read on a microplate reader at OD₄₅₀ and OD₆₂₀.

[2] = molecular target: T2, human TNFR2 overexpressed on CHO-S cells (CHOS-hTNFR2) (human, UniProt P20333 23-461); experiment: flow cytometry on CHO-S cells overexpressing human TNFR2 (positive control), MFI-FL2A; unit taken from the axis Conc log(nM)
T2 construct: also called hTNFR2 CHO-S; human TNFR2 molecule overexpressed on CHO-S cells
T2 sequence: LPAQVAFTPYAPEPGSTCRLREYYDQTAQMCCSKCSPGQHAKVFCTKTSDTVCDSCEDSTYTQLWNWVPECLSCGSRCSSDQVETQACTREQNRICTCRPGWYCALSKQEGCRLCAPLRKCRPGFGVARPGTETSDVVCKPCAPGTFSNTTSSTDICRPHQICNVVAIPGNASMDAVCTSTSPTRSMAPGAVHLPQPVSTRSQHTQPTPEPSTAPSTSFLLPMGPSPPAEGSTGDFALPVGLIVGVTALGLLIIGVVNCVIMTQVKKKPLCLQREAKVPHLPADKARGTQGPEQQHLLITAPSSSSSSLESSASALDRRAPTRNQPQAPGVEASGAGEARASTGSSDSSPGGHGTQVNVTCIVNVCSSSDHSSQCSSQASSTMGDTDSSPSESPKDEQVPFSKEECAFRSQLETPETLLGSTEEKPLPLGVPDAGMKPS
Procedure: In the study, the binding of the antibodies, after being diluted in a gradient, to a stable CHO-S strain line overexpressing human TNFR2 on the surface was assayed by using a flow cytometer.
CHOS-hTNFR2 cells were counted and diluted to 2×10⁶ cells/mL, and added to a U-bottom 96-well plate at 100 μL/well. The mixture was centrifuged at 300 g for 5 min, and the cell medium was removed. Samples (the humanized antibodies hz3C4.7, hz69B1.5, hz69B1.6, hz69B1.11 and hz69B1.20, the chimeric antibody 69B1, and the positive control antibody OPI) (the antibodies were subjected to a three-fold dilution in PBS from the maximum antibody concentration of 300 nM) were added to the U-plate, and the cells were resuspended at 100 μL/well and left to stand on ice for 30 min. The suspension was centrifuged at 400 g for 5 min, and the supernatant was removed. The cells were washed twice with PBS. The mixture was centrifuged at 300 g for 5 min, and PBS was removed. 100 μL of anti-human Fc PE-labeled secondary antibody (SoutherBiotech; 2040-09) (diluted at a 1:100 ratio in PBS) was added to each well and incubated on ice for 30 min in the dark. The mixture was centrifuged at 400 g for 5 min, and the supernatant was removed. The cells were washed 3 times with PBS. The cells were resuspended in 200 μL of 1×PBS and assayed by FACS.

IC50 (read off the curve) [1]: ~6 nM | EC50 [2]: 0.486 nM
B1: positive control antibody OPI (humanized antibody SBT-002e in WO 2017083525) (antibody, V domains shown)
VH: QVTLKESGPALVKPTQTLTLTCTFSGFSLSTSGMGVGWIRQPPGKALEWLAHIWWDDDKFYNPSLKSRLTISKDTSKNQVVLTMTNMDPVDTATYYCARLTGTRYFDYWGQGTTVTVSS
VL: DVQMTQSPSSLSASVGDRVTITCKASQDINKFIAWYQQKPGKAPKLLIHYTSTLQPGIPSRFSGSGSGRDYTFTISSLQPEDIATYYCLQYGNLWTFGGGTKVEIK
notes: also called Benchmark OPI
